pKd: −log10 of the molar value.
Key:
[1] = target: NRE peptide (three-finger Zif268 variant) (synthetic) (UniProt P08046); assay: cell_activity; conditions: 293 cells
[2] = target: 268//NRE (six-finger fusion, longer linker) (synthetic) (UniProt P08046); assay: cell_activity; conditions: VP16-activated transcription, 293 cells
[3] = target: Zif268 and NRE peptides co-expressed as separate chains (synthetic) (UniProt P08046+P08046); assay: cell_activity; conditions: co-expression of unlinked peptides; 293 cells
[4] = target: 268/NRE (six-finger fusion, shorter linker RQKDGERP) (synthetic) (UniProt P08046); assay: cell_activity; conditions: 293 cells
[5] = target: 268//NRE (six-finger fusion, Zif268 fingers - longer linker - NRE fingers) (synthetic) (UniProt P08046); assay: EMSA; conditions: room temp
[6] = target: NRE peptide (three-finger Zif268 variant selected by phage display) (synthetic) (UniProt P08046); assay: EMSA

## AAGGGTTCA (double strand) [N site in luciferase reporter promoter]
[1]
  activity (fold repression): 1.9

## AAGGGTTCAGGCGTGGGCG (double strand) [N/Z site in luciferase reporter promoter]
[1]
  activity (fold repression): 1.8
[2]
  activity (fold repression): 72
[3]
  activity (fold repression): 8.5
[4]
  activity (fold repression): 68

## AAGGGTTCAGTGCGTGGGCG (double strand) [N//Z site in luciferase reporter promoter]
[1]
  activity (fold repression): 2.7
[2]
  activity (fold repression): 47
[4]; linker modelled too short for all six fingers to bind
  activity (fold repression): 22

## GTGTGTGTGTGATCTGCGTGGGCGGTAAG (double strand) [Z site]
[5]; exact Kd not determined, smeared band
  pKd: 11.00

## TCTGCAAGGGTTCAGCGTGGGCGGTAAG (double strand) [NZ site]
[6]; apparent Kd with 0.1 nM Zif268 prebound to neighboring site
  pKd: 10.22
[6]; apparent Kd, NRE peptide alone
  pKd: 9.74
[5]; calculated from koff/kon, direct titration <1.0 pM, pH 7.0, 100 mM NaCl, 5 mM MgCl2, Zn
  pKd: 14.68

## TCTGCAAGGGTTCAGGCGACACCAACCAA (double strand) [N site]
[5]
  pKd: 9.72

## TCTGCAAGGGTTCAGGCGTGGGCGGTAAG (double strand) [N/Z site]
[6]; room temp
  pKd: 9.74
[5]; calculated from koff/kon, direct titration <1.0 pM, p113 states 3.8 fM
  pKd: 14.43

## TCTGCAAGGGTTCAGTGCGTGGGCGGTAAG (double strand) [N//Z site]
[5]; calculated from koff/kon, direct titration <1.0 pM
  pKd: 14.52

Reference: patent US6903185
